# In doi:10.1101/2021.08.20.457142:
# B1: MKK6 D-site peptide / p38-alpha (MAPK14) L195A, full length (parent complex)
# chain 1: SQSKGKKRNPGLKIPKEAFEQP
# chain 2: MSQERPTFYRQELNKTVWEVPERYQNLSPVGSGAYGSVCAAFDTKTGHRVAVKKLSRPFQSIIHAKRTYRELRLLKHMKHENVIGLLDVFTPARSLEEFNDVYLVTHLMGADLNNIVKCQKLTDDHVQFLIYQILRGLKYIHSADIIHRDLKPSNLAVNEDCELKILDFGLARHTDDEMTGYVATRWYRAPEIMANWMHYNQTVDIWSVGCIMAELLTGRTLFPGTDHIDQLKLILRLVGTPGAELLKKISSESARNYIQSLAQMPKMNFANVFIGANPLAVDLLEKMLVLDSDKRITAAQALAHAYFAQYHDPDDEPVAEPYDQSFESRDFLIDEWKSLTYDEVISFVPPPLDQEEMES
# Variants of: B1
row,screen value,Variant
1,1.42 Z-score of the enrichment rate within one screen of 711 sequences,chain 1 G5C
2,1.75 Z-score of the enrichment rate within one screen of 711 sequences,chain 1 G5V
3,1.57 Z-score of the enrichment rate within one screen of 711 sequences,chain 1 G5A
4,0.151 Z-score of the enrichment rate within one screen of 711 sequences,chain 1 G5D
5,1.5 Z-score of the enrichment rate within one screen of 711 sequences,chain 1 K7F
6,1.13 Z-score of the enrichment rate within one screen of 711 sequences,chain 1 K7C
7,1.32 Z-score of the enrichment rate within one screen of 711 sequences,chain 1 K7W
8,0.776 Z-score of the enrichment rate within one screen of 711 sequences,chain 1 K7H
9,0.591 Z-score of the enrichment rate within one screen of 711 sequences,chain 1 K7A
10,0.531 Z-score of the enrichment rate within one screen of 711 sequences,chain 1 K7Q
11,1.7 Z-score of the enrichment rate within one screen of 711 sequences,chain 1 K7M
12,0.476 Z-score of the enrichment rate within one screen of 711 sequences,chain 1 K7T
13,0.525 Z-score of the enrichment rate within one screen of 711 sequences,chain 1 K4A
14,1.3 Z-score of the enrichment rate within one screen of 711 sequences,chain 1 K4L
15,2.04 Z-score of the enrichment rate within one screen of 711 sequences,chain 1 K4R
16,0.044 Z-score of the enrichment rate within one screen of 711 sequences,chain 1 L12M
17,-1.12 Z-score of the enrichment rate within one screen of 711 sequences,chain 1 L12S
18,-0.212 Z-score of the enrichment rate within one screen of 711 sequences,chain 1 L12I
19,-0.354 Z-score of the enrichment rate within one screen of 711 sequences,"chain 1 R8A, chain 1 P10A"
20,1.18 Z-score of the enrichment rate within one screen of 711 sequences,"chain 1 G5A, chain 1 G11A"
21,-0.724 Z-score of the enrichment rate within one screen of 711 sequences,"chain 1 K4A, chain 1 K13A"
22,-0.263 Z-score of the enrichment rate within one screen of 711 sequences,"chain 1 G5A, chain 1 K13A"
23,0.0782 Z-score of the enrichment rate within one screen of 711 sequences,"chain 1 K4A, chain 1 K16A"
24,0.241 Z-score of the enrichment rate within one screen of 711 sequences,chain 1 P10G
25,-0.594 Z-score of the enrichment rate within one screen of 711 sequences,chain 1 P10E

row,screen value,Variant
1,0.284 Z-score of the enrichment rate within one screen of 711 sequences,chain 1 P10N
2,-0.276 Z-score of the enrichment rate within one screen of 711 sequences,"chain 1 P10A, chain 1 K16A"
3,0.638 Z-score of the enrichment rate within one screen of 711 sequences,chain 1 K6H
4,1.2 Z-score of the enrichment rate within one screen of 711 sequences,chain 1 K6L
5,0.848 Z-score of the enrichment rate within one screen of 711 sequences,chain 1 K6I
6,0.469 Z-score of the enrichment rate within one screen of 711 sequences,chain 1 K6T
7,0.535 Z-score of the enrichment rate within one screen of 711 sequences,chain 1 K6S
8,1.13 Z-score of the enrichment rate within one screen of 711 sequences,chain 1 K6F
9,0.521 Z-score of the enrichment rate within one screen of 711 sequences,chain 1 K6G
10,0.831 Z-score of the enrichment rate within one screen of 711 sequences,chain 1 K6C
11,-0.113 Z-score of the enrichment rate within one screen of 711 sequences,"chain 1 R8A, chain 1 N9A"
12,-0.162 Z-score of the enrichment rate within one screen of 711 sequences,"chain 1 G5A, chain 1 R8A"
13,0.0844 Z-score of the enrichment rate within one screen of 711 sequences,"chain 1 P10A, chain 1 G11A"
14,-0.0746 Z-score of the enrichment rate within one screen of 711 sequences,chain 1 K13C
15,2.75 Z-score of the enrichment rate within one screen of 711 sequences,chain 1 P15N
16,0.909 Z-score of the enrichment rate within one screen of 711 sequences,chain 1 P15Q
17,1.3 Z-score of the enrichment rate within one screen of 711 sequences,chain 1 P15L
18,1.25 Z-score of the enrichment rate within one screen of 711 sequences,chain 1 P15F
19,-0.229 Z-score of the enrichment rate within one screen of 711 sequences,"chain 1 K6A, chain 1 K7A"
20,0.201 Z-score of the enrichment rate within one screen of 711 sequences,"chain 1 R8A, chain 1 P15A"
21,0.162 Z-score of the enrichment rate within one screen of 711 sequences,"chain 1 N9A, chain 1 K16A"
22,1.54 Z-score of the enrichment rate within one screen of 711 sequences,chain 1 N9F
23,2.08 Z-score of the enrichment rate within one screen of 711 sequences,chain 1 N9R
24,1.77 Z-score of the enrichment rate within one screen of 711 sequences,chain 1 N9L
25,1.25 Z-score of the enrichment rate within one screen of 711 sequences,chain 1 N9Y

row,screen value,Variant
1,-0.887 Z-score of the enrichment rate within one screen of 711 sequences,"chain 1 G11A, chain 1 L12A"
2,1.61 Z-score of the enrichment rate within one screen of 711 sequences,"chain 1 N9A, chain 1 P15A"
3,1.54 Z-score of the enrichment rate within one screen of 711 sequences,"chain 1 P15A, chain 1 K16A"
4,-0.938 Z-score of the enrichment rate within one screen of 711 sequences,"chain 1 G11A, chain 1 I14A"
5,1.37 Z-score of the enrichment rate within one screen of 711 sequences,chain 1 G11H
6,-0.211 Z-score of the enrichment rate within one screen of 711 sequences,chain 1 G11P
7,1.37 Z-score of the enrichment rate within one screen of 711 sequences,chain 1 G11C
8,1 Z-score of the enrichment rate within one screen of 711 sequences,chain 1 G11L
9,1.09 Z-score of the enrichment rate within one screen of 711 sequences,chain 1 G11Q
10,-0.412 Z-score of the enrichment rate within one screen of 711 sequences,"chain 1 G11A, chain 1 K13A"
11,-0.71 Z-score of the enrichment rate within one screen of 711 sequences,"chain 1 K7A, chain 1 K13A"
12,1.75 Z-score of the enrichment rate within one screen of 711 sequences,chain 1 K16R
13,-0.612 Z-score of the enrichment rate within one screen of 711 sequences,chain 1 K16E
14,0.661 Z-score of the enrichment rate within one screen of 711 sequences,chain 1 K16W
15,-0.107 Z-score of the enrichment rate within one screen of 711 sequences,chain 1 K16Y
16,0.706 Z-score of the enrichment rate within one screen of 711 sequences,chain 1 K16V
17,-1.07 Z-score of the enrichment rate within one screen of 711 sequences,chain 1 I14Q
18,0.072 Z-score of the enrichment rate within one screen of 711 sequences,chain 1 R8H
19,-0.149 Z-score of the enrichment rate within one screen of 711 sequences,chain 1 R8A
20,-0.13 Z-score of the enrichment rate within one screen of 711 sequences,chain 1 R8C
21,-0.084 Z-score of the enrichment rate within one screen of 711 sequences,chain 1 R8G
22,0.227 Z-score of the enrichment rate within one screen of 711 sequences,chain 1 R8T
23,-0.224 Z-score of the enrichment rate within one screen of 711 sequences,chain 1 R8M
24,-1.1 Z-score of the enrichment rate within one screen of 711 sequences,"chain 1 K7A, chain 1 I14A"
25,1.01 Z-score of the enrichment rate within one screen of 711 sequences,"chain 1 K6A, chain 1 P15A"
